From paper PMC4976051 (Journal of molecular biology, 2016)

Target: T1, E. coli RecB (E. coli, UniProt P08394 1-1180)
T1 sequence (looked up): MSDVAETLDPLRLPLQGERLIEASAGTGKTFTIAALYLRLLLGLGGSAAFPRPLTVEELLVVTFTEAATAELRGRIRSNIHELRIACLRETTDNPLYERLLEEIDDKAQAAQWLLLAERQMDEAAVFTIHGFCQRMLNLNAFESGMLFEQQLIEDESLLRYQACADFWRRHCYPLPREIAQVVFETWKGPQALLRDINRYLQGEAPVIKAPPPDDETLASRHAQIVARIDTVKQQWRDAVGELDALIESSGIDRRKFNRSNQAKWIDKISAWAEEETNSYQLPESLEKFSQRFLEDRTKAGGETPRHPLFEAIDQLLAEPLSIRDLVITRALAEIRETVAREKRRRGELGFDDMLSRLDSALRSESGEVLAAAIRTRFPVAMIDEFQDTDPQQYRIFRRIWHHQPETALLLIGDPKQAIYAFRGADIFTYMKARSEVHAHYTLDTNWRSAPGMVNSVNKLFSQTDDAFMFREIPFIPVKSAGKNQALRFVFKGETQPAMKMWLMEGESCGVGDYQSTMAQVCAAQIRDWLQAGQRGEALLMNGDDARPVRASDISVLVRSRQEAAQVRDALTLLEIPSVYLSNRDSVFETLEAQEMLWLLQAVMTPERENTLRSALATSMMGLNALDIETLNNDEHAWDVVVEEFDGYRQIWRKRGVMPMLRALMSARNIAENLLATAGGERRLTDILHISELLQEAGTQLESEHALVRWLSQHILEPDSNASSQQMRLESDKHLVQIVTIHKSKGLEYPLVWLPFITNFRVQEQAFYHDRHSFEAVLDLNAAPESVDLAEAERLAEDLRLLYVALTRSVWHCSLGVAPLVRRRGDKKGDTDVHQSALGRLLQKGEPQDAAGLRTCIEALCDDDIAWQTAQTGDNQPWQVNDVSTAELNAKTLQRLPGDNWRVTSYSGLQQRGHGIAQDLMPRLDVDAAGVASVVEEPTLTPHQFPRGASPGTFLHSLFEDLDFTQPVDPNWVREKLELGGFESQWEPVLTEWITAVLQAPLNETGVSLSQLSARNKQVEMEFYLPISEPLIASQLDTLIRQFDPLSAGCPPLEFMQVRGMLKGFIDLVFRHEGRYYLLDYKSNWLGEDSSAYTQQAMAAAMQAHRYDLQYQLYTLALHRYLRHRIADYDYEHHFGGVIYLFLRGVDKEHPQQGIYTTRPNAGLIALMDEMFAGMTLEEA
Assay: reconstitution from purified subunits

B1: E. coli RecC (natural protein, UniProt P07648 1-1122, looked up)
chain: MLRVYHSNRLDVLEALMEFIVERERLDDPFEPEMILVQSTGMAQWLQMTLSQKFGIAANIDFPLPASFIWDMFVRVLPEIPKESAFNKQSMSWKLMTLLPQLLEREDFTLLRHYLTDDSDKRKLFQLSSKAADLFDQYLVYRPDWLAQWETGHLVEGLGEAQAWQAPLWKALVEYTHQLGQPRWHRANLYQRFIETLESATTCPPGLPSRVFICGISALPPVYLQALQALGKHIEIHLLFTNPCRYYWGDIKDPAYLAKLLTRQRRHSFEDRELPLFRDSENAGQLFNSDGEQDVGNPLLASWGKLGRDYIYLLSDLESSQELDAFVDVTPDNLLHNIQSDILELENRAVAGVNIEEFSRSDNKRPLDPLDSSITFHVCHSPQREVEVLHDRLLAMLEEDPTLTPRDIIVMVADIDSYSPFIQAVFGSAPADRYLPYAISDRRARQSHPVLEAFISLLSLPDSRFVSEDVLALLDVPVLAARFDITEEGLRYLRQWVNESGIRWGIDDDNVRELELPATGQHTWRFGLTRMLLGYAMESAQGEWQSVLPYDESSGLIAELVGHLASLLMQLNIWRRGLAQERPLEEWLPVCRDMLNAFFLPDAETEAAMTLIEQQWQAIIAEGLGAQYGDAVPLSLLRDELAQRLDQERISQRFLAGPVNICTLMPMRSIPFKVVCLLGMNDGVYPRQLAPLGFDLMSQKPKRGDRSRRDDDRYLFLEALISAQQKLYISYIGRSIQDNSERFPSVLVQELIDYIGQSHYLPGDEALNCDESEARVKAHLTCLHTRMPFDPQNYQPGERQSYAREWLPAASQAGKAHSEFVQPLPFTLPETVPLETLQRFWAHPVRAFFQMRLQVNFRTEDSEIPDTEPFILEGLSRYQINQQLLNALVEQDDAERLFRRFRAAGDLPYGAFGEIFWETQCQEMQQLADRVIACRQPGQSMEIDLACNGVQITGWLPQVQPDGLLRWRPSLLSVAQGMQLWLEHLVYCASGGNGESRLFLRKDGEWRFPPLAAEQALHYLSQLIEGYREGMSAPLLVLPESGGAWLKTCYDAQNDAMLDDDSTLQKARTKFLQAYEGNMMVRGEGDDIWYQRLWRQLTPETMEAIVEQSQRFLLPLFRFNQS
- binding result: binds
